Columns and labels:
human cathepsin B = human cathepsin B (UniProt P07858)
human cathepsin G = target: T1, human cathepsin G (UniProt P08311)
T1 sequence: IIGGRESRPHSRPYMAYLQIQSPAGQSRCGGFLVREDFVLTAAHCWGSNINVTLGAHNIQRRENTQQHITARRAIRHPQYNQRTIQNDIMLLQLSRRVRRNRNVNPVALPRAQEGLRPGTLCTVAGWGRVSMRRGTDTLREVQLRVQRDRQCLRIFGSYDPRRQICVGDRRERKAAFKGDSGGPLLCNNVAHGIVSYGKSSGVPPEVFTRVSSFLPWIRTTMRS

human cathepsin H = target: T2, human cathepsin H (UniProt P09668)
T2 sequence: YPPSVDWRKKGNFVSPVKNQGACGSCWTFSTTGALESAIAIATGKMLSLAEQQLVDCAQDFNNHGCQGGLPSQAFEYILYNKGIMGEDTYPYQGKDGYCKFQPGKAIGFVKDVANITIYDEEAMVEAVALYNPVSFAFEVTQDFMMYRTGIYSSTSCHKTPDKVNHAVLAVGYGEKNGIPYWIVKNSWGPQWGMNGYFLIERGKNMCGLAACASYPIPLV

human cathepsin K = target: T3, human cathepsin K (UniProt P43235)
T3 sequence: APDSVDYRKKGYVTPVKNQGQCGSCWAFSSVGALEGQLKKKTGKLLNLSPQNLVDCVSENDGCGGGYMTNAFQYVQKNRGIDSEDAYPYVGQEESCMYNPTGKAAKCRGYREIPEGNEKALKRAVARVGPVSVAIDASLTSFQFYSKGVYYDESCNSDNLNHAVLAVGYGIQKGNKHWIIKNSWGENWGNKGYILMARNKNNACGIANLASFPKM

human cathepsin L = human cathepsin L (UniProt P07711)
Chain of human cathepsin L (P07711 114-333): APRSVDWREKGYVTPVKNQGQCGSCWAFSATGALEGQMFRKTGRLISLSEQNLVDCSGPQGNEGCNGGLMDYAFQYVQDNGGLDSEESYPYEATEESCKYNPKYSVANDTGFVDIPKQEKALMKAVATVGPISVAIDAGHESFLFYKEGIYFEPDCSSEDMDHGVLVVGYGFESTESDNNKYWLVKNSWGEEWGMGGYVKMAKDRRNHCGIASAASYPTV

human cathepsin V = human cathepsin V (UniProt O60911)
Chain of human cathepsin V (O60911 114-334): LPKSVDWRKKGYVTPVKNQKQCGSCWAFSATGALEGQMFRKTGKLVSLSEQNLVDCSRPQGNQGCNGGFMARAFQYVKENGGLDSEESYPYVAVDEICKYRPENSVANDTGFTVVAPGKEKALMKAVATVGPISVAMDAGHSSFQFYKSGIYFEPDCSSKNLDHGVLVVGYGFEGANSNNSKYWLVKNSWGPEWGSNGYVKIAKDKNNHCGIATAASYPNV

human elastase = human elastase (UniProt P08246)
Chain of human elastase (P08246 30-247): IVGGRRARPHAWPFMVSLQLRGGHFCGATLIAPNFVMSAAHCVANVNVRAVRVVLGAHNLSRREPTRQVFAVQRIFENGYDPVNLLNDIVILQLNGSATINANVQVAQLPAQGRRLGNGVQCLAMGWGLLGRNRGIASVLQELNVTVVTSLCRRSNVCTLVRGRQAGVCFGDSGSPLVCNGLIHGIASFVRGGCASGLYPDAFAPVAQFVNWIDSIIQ

human granzyme A = target: T4, human granzyme A (UniProt P12544)
T4 sequence: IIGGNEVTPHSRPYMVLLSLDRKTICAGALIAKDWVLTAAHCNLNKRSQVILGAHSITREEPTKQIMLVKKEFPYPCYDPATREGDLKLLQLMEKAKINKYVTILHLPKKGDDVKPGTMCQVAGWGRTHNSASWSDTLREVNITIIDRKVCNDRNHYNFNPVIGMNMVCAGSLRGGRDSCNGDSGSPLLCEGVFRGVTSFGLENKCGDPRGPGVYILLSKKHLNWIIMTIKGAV

human granzyme B = human granzyme B (UniProt P10144)
Chain of human granzyme B (P10144 21-247): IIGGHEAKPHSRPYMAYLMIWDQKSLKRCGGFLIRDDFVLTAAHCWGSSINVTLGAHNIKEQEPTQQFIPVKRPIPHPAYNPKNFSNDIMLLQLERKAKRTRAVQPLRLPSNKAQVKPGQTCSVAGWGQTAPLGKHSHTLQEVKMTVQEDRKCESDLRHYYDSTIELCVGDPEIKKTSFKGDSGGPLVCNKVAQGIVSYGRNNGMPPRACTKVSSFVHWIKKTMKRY

[1] = tested on: Spi2A-3xFLAG (murine serine protease inhibitor 2A with a C-terminal 3xFLAG epitope tag)

alkaline phosphatase tagged with C-terminal 3xFLAG (Sigma-Aldrich)
protease activity after incubation under the same conditions as with Spi2A (human cathepsin B): had no effect on protease activity | protease activity after incubation under the same conditions as with Spi2A (human cathepsin G): had no effect on protease activity | protease activity after incubation under the same conditions as with Spi2A (human cathepsin H): had no effect on protease activity | protease activity after incubation under the same conditions as with Spi2A (human cathepsin K): had no effect on protease activity | protease activity after incubation under the same conditions as with Spi2A (human cathepsin L): had no effect on protease activity | protease activity after incubation under the same conditions as with Spi2A (human cathepsin V): had no effect on protease activity | protease activity after incubation under the same conditions as with Spi2A (human elastase): had no effect on protease activity | protease activity after incubation under the same conditions as with Spi2A (human granzyme A): had no effect on protease activity | protease activity after incubation under the same conditions as with Spi2A (human granzyme B): had no effect on protease activity

human cathepsin B
continuous hydrolysis of the cathepsin B substrate (Z-FR)2-R110, 20 nM cathepsin B with 200 or 400 nM Spi2A [1]: The enzyme was completely inhibited, within the dead time of the measurement

From patent US20040214773
